Test: soluble on expression in E. coli; label from the status in PepcDB or PDB records

Soluble on expression in E. coli, soluble:
GMMQKPITEIIIVGGGTAGWITAGLLAAEHNVDKGVLAHSPKLNITLIESPDVATIGVGEGTWPSMRSTLSKIGIDENDFIRQCDASFKQGSRFINWCKDPQSNVADSYLHPFSLPHGHQELDLCPYWLPHAEQVSFAEAVCSQQVLTQLGLAPKSIVTAQYHFQNNYGYHLNAAKFSQLLTEHCTQKLGVTHIRDHVSQIINNQHGDIEKLITKQNGEISGQLFIDCTGAKSLLLGEHLQVPFLSQKSVLFNDRALAIQVPYSDANSPIASCTHSTAQPNGWIWDIGLPTRKGVGYVYSSSHTNDIDAQKTLFNYLGVDGAAADKLEPRQLAINPGYRAKCWQNNCIAIGMAAGFIEPLEASALALIEWTASTLAQQLPPNRMVMDTISARVNERYQQHWQQIIDFLKLHYVISQRQEDRYWRDHRESNSIPDSLQAMLELWRYQTPSQQDISYKEALFPAASFQYVLYGMSFNTQLPTHVKPSMQQLAQRLFNDNQQRTQALSKNLPTNRELLDKVAQYGFPKL, GMNGFSQLEGLRGHPSVVRVIGHRGARGVMPENTLEGFAFTLAAGVRALEFDVVMTADGVPVVTHNHHLANAMTRDGQGHWLTGAERQVAEMTYAEIRALDVGGLDGRTVYGRRFPDQAFLTGIHVPRLGELLDLCAGYGDQAPYLLLELKSDPALMHDHAARAEMVAAVLADVRRYRMEPRTVMHSFDWALLGECRRQAPDLPTSYLSQLPENADDPGEDSAKPVGPDYDRMTESLPQAVASAGGQLWCPYFLDVTPELVAEAHDLGLIVLTWTVNEPEDIRRMATTGVDGIVTDYPGRTQRILIDMGLSWT, GMNIEKTRFCINRKIAPGLSIEAFFRLVKRLEFNKVELRNDMPSGSVTDDLNYNQVRNLAEKYGLEIVTINAVYPFNQLTEEVVKKTEGLLRDAQGVGARALVLCPLNDGTIVPPEVTVEAIKRLSDLFARYDIQGLVEPLGFRVSSLRSAVWAQQLIREAGSPFKVLLDTFHHHLYEEAEKEFASRIDISAIGLVHLSGVEDTRPTEALADEQRIMLSEKDVMQNYQQVQRLENMGYRGIYAFEPFSSQLASWSEAEIEEQINRSVSLLLQ, GMNRLRTSFQQTTGQISGHGKRNVGVLKTAFAAVADEMASDQYGTGAIIEPFEQKFADVLGMDDAVFFPSGTMAQQVALRIWSDETDNRTVAYHPLCHLEIHEQDGLKELHPIETILVGAADRLMTLDEIKALPDIACLLLELPQREIGGVAPAFSELETISRYCRERGIRLHLDGARLFEMLPYYEKTAAEIAGLFDSIYISFYKGLGGIAGAILAGPAAFCQTARIWKRRYGGDLISLYPYIVSADYYYELRKDRMGQYYEQAKQLAEQFNALPGVHTTPEVPVSNMFHLHFDGQAADISPKLEQVQEETGLGFVGYLVDKDGYCSTEISVGDAYGELDQQTRDAGFARLRQAFS, GMNSPKNSLYEEKSGHYYNAVNPNLLKHIKKEWKEVLDIGCSSGALGAAIKENGTRVSGIEAFPEAAEQAKEKLDHVVLGDIETMDMPYEEEQFDCVIFGDVLEHLFDPWAVIEKVKPYIKQNGVILASIPNVSHISVLAPLLAGNWTYTEYGLLDKTHIRFFTFNEMLRMFLKAGYSISKVDRVYVDHKMYEPLIEELYGICKKYRLGSGFMAETVVFQYIIEAEKSQL, GMQQPTASVVSYVAEYHKATETTMGRYKKVIEITGHDEVAAKLLEGLIDAGTRYFSKVVEMEHRMASARFRLDGEELRELTETLDRSRRLAHESLISSLHVFNRYIVKEYGEELKEAGIEGGIFPKPEANRDRIAIADWAGELLTGIYENRHR, GMSSKQHCVKLNDGHLIPALGFGTYKPKEVPKSKSLEAACLALDVGYRHVDTAYAYQVEEEIGQAIQSKIKAGVVKREDLFVTTKLWCTCFRPELVKPALEKSLKKLQLDYVDLYIMHYPVPMKSGDNDFPVNEQGKSLLDTVDFCDTWERLEECKDAGLVKSIGVSNFNHRQLERILNKPGLKYKPVCNQVECHLYLNQRKLLDYCESKDIVLVAYGALGTQRYKEWVDQNSPVLLNDPVLCDVAKKNKRSPALIALRYLIQRGIVPLAQSFKENEMRENLQVFGFQLSPEDMKTLDGLNKNFRYLPAEFLVDHPEYPFVEEY, GMSVNGIEVAKPFIAATVNVLSTMAGIQPQPGKPYVKKNNVAKGDVSAVIGITGHKNGSISVTFTKSCAIALVKGMLGDDIQDILQDTKDAVGEVTNMISGQARAGLAEMGMVFQGSTPSVIMGDGHTISHVTKSPIMAIPFLTNHGEFTVEFCFE

Source: the DeepSol protein solubility set
